Results published in patent US20190106509A1 (PROTHIX B V, published 2019).
Read-outs that look alike come from different tables or passages of the source.

B1: composite human mAb VH2/Vκ2 (antibody, V domains shown)
VH: QVQLVQSGSELKKPGASVKLSCKASGYTFTRYWMHWVKQAPGQGLEWIGNIYPDSDSTNYDEKFRTRATLTADTSTSTAYMELSSLRSEDTAVYYCTRMGFYAMDYWGQGTTVTVSS
VL: NIVMTQSPSSLSASVGDRVTITCKASENVVTYVSWFQQKPGQAPKLLIYGASNRYTGVPDRFSGSGSATDFTLTISSLQAEDVADYHCGQSYSYPLTFGQGTKLEIKR
notes: Human IgG4 (S241P hinge mutant) heavy chain and human kappa light chain
B2: composite human mAb VH1/Vκ1 (antibody, V domains shown)
VH: QVQLVQSGSELKKPGASVKLSCKASGYTFTRYWMHWVKQAHGQGLEWIGNIYPDSDSTNYDEKFRTRATLTADTSTSTAYMHLSSLTSEDSAVYYCTRMGFYAMDYWGQGTSVTVSS
VL: NIVMTQSPSSLSASVGDRVTITCKASENVVTYVSWFQQKPGQAPKLLIYGASNRYTGVPDRFTGSGSATDFTLTISSLQAEDVADYHCGQSYSYPLTFGQGTKLEIKR
notes: as for B1
B3: composite human mAb VH1/Vκ2 (antibody, V domains shown)
VH: QVQLVQSGSELKKPGASVKLSCKASGYTFTRYWMHWVKQAHGQGLEWIGNIYPDSDSTNYDEKFRTRATLTADTSTSTAYMHLSSLTSEDSAVYYCTRMGFYAMDYWGQGTSVTVSS
VL: NIVMTQSPSSLSASVGDRVTITCKASENVVTYVSWFQQKPGQAPKLLIYGASNRYTGVPDRFSGSGSATDFTLTISSLQAEDVADYHCGQSYSYPLTFGQGTKLEIKR
notes: as for B1
B4: composite human mAb VH1/Vκ3 (antibody, V domains shown)
VH: QVQLVQSGSELKKPGASVKLSCKASGYTFTRYWMHWVKQAHGQGLEWIGNIYPDSDSTNYDEKFRTRATLTADTSTSTAYMHLSSLTSEDSAVYYCTRMGFYAMDYWGQGTSVTVSS
VL: DIVMTQSPSSLSASVGDRVTITCKASENVVTYVSWFQQKPGQAPKLLIYGASNRYTGVPDRFSGSGSGTDFTLTISSLQAEDVADYHCGQSYSYPLTFGQGTKLEIKR
notes: as for B1
B5: composite human mAb VH1/Vκ4 (antibody, V domains shown)
VH: QVQLVQSGSELKKPGASVKLSCKASGYTFTRYWMHWVKQAHGQGLEWIGNIYPDSDSTNYDEKFRTRATLTADTSTSTAYMHLSSLTSEDSAVYYCTRMGFYAMDYWGQGTSVTVSS
VL: DIVMTQSPSSLSASVGDRVTITCKASENVVTYVSWFQQKPGQAPKLLIYGASNRYTGVPDRFSGSGSGTDFTLTISSLQAEDVATYHCGQSYSYPLTFGQGTKLEIKR
notes: as for B1
B6: composite human mAb VH2/Vκ1 (antibody, V domains shown)
VH: QVQLVQSGSELKKPGASVKLSCKASGYTFTRYWMHWVKQAPGQGLEWIGNIYPDSDSTNYDEKFRTRATLTADTSTSTAYMELSSLRSEDTAVYYCTRMGFYAMDYWGQGTTVTVSS
VL: NIVMTQSPSSLSASVGDRVTITCKASENVVTYVSWFQQKPGQAPKLLIYGASNRYTGVPDRFTGSGSATDFTLTISSLQAEDVADYHCGQSYSYPLTFGQGTKLEIKR
notes: as for B1
B7: composite human mAb VH2/Vκ3 (antibody, V domains shown)
VH: QVQLVQSGSELKKPGASVKLSCKASGYTFTRYWMHWVKQAPGQGLEWIGNIYPDSDSTNYDEKFRTRATLTADTSTSTAYMELSSLRSEDTAVYYCTRMGFYAMDYWGQGTTVTVSS
VL: DIVMTQSPSSLSASVGDRVTITCKASENVVTYVSWFQQKPGQAPKLLIYGASNRYTGVPDRFSGSGSGTDFTLTISSLQAEDVADYHCGQSYSYPLTFGQGTKLEIKR
notes: as for B1
B8: composite human mAb VH2/Vκ4 (antibody, V domains shown)
VH: QVQLVQSGSELKKPGASVKLSCKASGYTFTRYWMHWVKQAPGQGLEWIGNIYPDSDSTNYDEKFRTRATLTADTSTSTAYMELSSLRSEDTAVYYCTRMGFYAMDYWGQGTTVTVSS
VL: DIVMTQSPSSLSASVGDRVTITCKASENVVTYVSWFQQKPGQAPKLLIYGASNRYTGVPDRFSGSGSGTDFTLTISSLQAEDVATYHCGQSYSYPLTFGQGTKLEIKR
notes: as for B1
B9: composite human mAb VH3/Vκ1 (antibody, V domains shown)
VH: QVQLVQSGSELKKPGASVKLSCKASGYTFTRYWMHWVRQAPGQGLEWIGNIYPDSDSTNYDEKFRTRVTLTADTSTSTAYMELSSLRSEDTAVYYCTRMGFYAMDYWGQGTTVTVSS
VL: NIVMTQSPSSLSASVGDRVTITCKASENVVTYVSWFQQKPGQAPKLLIYGASNRYTGVPDRFTGSGSATDFTLTISSLQAEDVADYHCGQSYSYPLTFGQGTKLEIKR
notes: as for B1
B10: composite human mAb VH3/Vκ2 (antibody, V domains shown)
VH: QVQLVQSGSELKKPGASVKLSCKASGYTFTRYWMHWVRQAPGQGLEWIGNIYPDSDSTNYDEKFRTRVTLTADTSTSTAYMELSSLRSEDTAVYYCTRMGFYAMDYWGQGTTVTVSS
VL: NIVMTQSPSSLSASVGDRVTITCKASENVVTYVSWFQQKPGQAPKLLIYGASNRYTGVPDRFSGSGSATDFTLTISSLQAEDVADYHCGQSYSYPLTFGQGTKLEIKR
notes: as for B1
B11: composite human mAb VH3/Vκ3 (antibody, V domains shown)
VH: QVQLVQSGSELKKPGASVKLSCKASGYTFTRYWMHWVRQAPGQGLEWIGNIYPDSDSTNYDEKFRTRVTLTADTSTSTAYMELSSLRSEDTAVYYCTRMGFYAMDYWGQGTTVTVSS
VL: DIVMTQSPSSLSASVGDRVTITCKASENVVTYVSWFQQKPGQAPKLLIYGASNRYTGVPDRFSGSGSGTDFTLTISSLQAEDVADYHCGQSYSYPLTFGQGTKLEIKR
notes: as for B1
B12: composite human mAb VH3/Vκ4 (antibody, V domains shown)
VH: QVQLVQSGSELKKPGASVKLSCKASGYTFTRYWMHWVRQAPGQGLEWIGNIYPDSDSTNYDEKFRTRVTLTADTSTSTAYMELSSLRSEDTAVYYCTRMGFYAMDYWGQGTTVTVSS
VL: DIVMTQSPSSLSASVGDRVTITCKASENVVTYVSWFQQKPGQAPKLLIYGASNRYTGVPDRFSGSGSGTDFTLTISSLQAEDVATYHCGQSYSYPLTFGQGTKLEIKR
notes: as for B1
B13: mouse mAb anti-FXI 34.2 (antibody, V domains shown)
VH: QVQLQQPGSELVRPGASVKLSCKASGYTFTRYWMHWVKQRHGQGLEWIGNIYPDSDSTNYDEKFRTKATLTADTSSSTAYMHLSSLTSEDSAVYYCTRMGFYAMDYWGQGTSVTVSS
VL: NIVMTQSPKSMSMSVGERVTLSCKASENVVTYVSWFQHKPEQSPKLLIYGASNRYTGVPDRFTGSGSATDFTLTISSVQAEDLADYHCGQSYSYPLTFGAGTKLELKR
notes: Mouse IgG purified from hybridoma supernatant by protein G

Columns and labels:
[1] = biological target: T1, human coagulation factor XI (FXI) (human, UniProt P03951 19-625); assay: cell-based or functional assay
[2] = biological target: T1, human coagulation factor XI (FXI); assay: competition ELISA on coated human FXI; competitor biotinylated murine mAb anti-FXI 34.2
Text: The binding of the biotinylated antibody was detected with streptavidin-HRP (Sigma) and OPD substrate (Sigma. The reaction was stopped with 3M HCl, absorbance read at 490 nm on a Dynex Technologies MRX TC II plate reader and the binding curves plotted.

[3] = biological target: T1, human coagulation factor XI (FXI); assay: SPR (Biacore), FXI immobilized on CM5 chip, mAb as analyte
Experimental: (§1) Surface plasmon resonance was on a Biacore 2000 (GE Healthcare) equipped with a research-grade cm5 sensor chip to assess the affinity constants of the mAbs for FXI. Factor XI was immobilized using amine-coupling chemistry. the surface was activated for 7 min with a 1:1 mixture of 0.1 M N-hydroxysuccinimide and 0.1 M 3-(N,N-dimethylamino) propyl-N-ethylcarbodiimide at a flow rate of 10 l per min. The ligand at a concentration of 10 μg/ml in 10 mM sodium acetate, pH 5.5, was immobilized at a density of 1000 ru. An untreated flow cell served as a reference surface. All the surfaces were blocked with a 7 min injection of 1 M ethanolamine, pH 8.0. The following protocol was used to assess kinetic binding of the mAbs to FXI. […] The complex was allowed to associate and dissociate for 360 and 600 seconds, respectively. The surfaces were regenerated with a 10 seconds injection of 50 mM NaOH. Triplicate injections (in random order) of each sample and a buffer blank were flowed over the two surfaces. Data were collected at a rate of 1 Hz. The data were fit to a simple 1:1 interaction model using the global data analysis option available within BiaEvaluation 4.1 software.

[4] = biological target: T1, human coagulation factor XI (FXI); assay: as above; remark: listed apart in the source
Experimental: as §1

Row | Binder | APTT (% NPP) [1] | Relative IC50 [2] | Kd [3] | Kd [4]
1 | B1 | 243 % NPP | 0.92 relative to IC50 of mouse-human chimeric mAb anti-FXI 34.2 | 880 pM | 
2 | B2 | 253 % NPP | 0.75 relative to IC50 of mouse-human chimeric mAb anti-FXI 34.2 | 120 pM | 
3 | B3 | 248 % NPP | 0.69 relative to IC50 of mouse-human chimeric mAb anti-FXI 34.2 | 250 pM | 
4 | B4 | 257 % NPP | 0.91 relative to IC50 of mouse-human chimeric mAb anti-FXI 34.2 | 170 pM | 
5 | B5 | 260 % NPP | 0.89 relative to IC50 of mouse-human chimeric mAb anti-FXI 34.2 | 350 pM | 
6 | B6 | 252 % NPP | 0.84 relative to IC50 of mouse-human chimeric mAb anti-FXI 34.2 | 240 pM | 
7 | B7 | 247 % NPP | 0.93 relative to IC50 of mouse-human chimeric mAb anti-FXI 34.2 | 510 pM | 
8 | B8 | 259 % NPP | 0.98 relative to IC50 of mouse-human chimeric mAb anti-FXI 34.2 | 62 pM | 
9 | B9 | 250 % NPP | 0.87 relative to IC50 of mouse-human chimeric mAb anti-FXI 34.2 | 130 pM | 
10 | B10 | 255 % NPP | 0.87 relative to IC50 of mouse-human chimeric mAb anti-FXI 34.2 | 79 pM | 
11 | B11 | 256 % NPP | 0.99 relative to IC50 of mouse-human chimeric mAb anti-FXI 34.2 | 81 pM | 
12 | B12 | 255 % NPP | 1.13 relative to IC50 of mouse-human chimeric mAb anti-FXI 34.2 | 420 pM | 
13 | B13 |  |  |  | 200 pM
